One block for each compound: values may come before it.
Assays:
α-synuclein [1] = biological target: T1, α-synuclein (Homo sapiens, UniProt P37840); assay: Tyrosine fluorescence assay of metal binding to α-synuclein; settings: wildtype α-synuclein
T1 construct: His-6 (cleaved yes); made in house; host or cells: bacteria (IPTG-induced; Pro-Ex His 6 vector)
Method: (§1) Because iron binds to other proteins that form aggregates and iron is known to accumulate in Parkinson's disease, iron might bind directly to α-synuclein. To confirm this hypothesis, the interaction of iron with α-synuclein was tested using tyrosine fluorescence as an indicator of iron binding. […] Fluorescence of tyrosine has been used to monitor binding of metals to β-amyloid [Garzon-Rodriguez W. et al., Bioorg. Med. Chem. Let., 9:2243-2248 (1999), which is hereby incorporated by reference]. A similar approach was taken to analyze binding of iron to α-synuclein. Tyrosine has a fluorescence emission spectrum that has a peak emission of 310 nm when excited at 280 nm, respectively (FIG. 2A). It was observed that binding of iron reduced the fluorescence of the tyrosines in α-synuclein. […] The Hill coefficient was 1.0 (R^2=1.0, P<0.0001), indicating one binding site for iron with no cooperativity (FIGS. 2A & B). α-Synuclein was also tested for binding to other metals, including CuCl2, ZnCl2 and MgCl2. Because the C-terminus of α-synuclein has a region with 7 glutamates and 4 aspartates, which together could chelate iron, we created a deletion construct lacking the last 27 amino acids on α-synuclein and analyzed binding of this construct.
To monitor the binding profiles of Fe(II) and Mg(II) to α-synuclein in vitro we used changes of tyrosine fluorescence. Tyrosine fluorescence is used as an indicator of changes in protein conformation or binding of metals. Excitation of tyrosine at 280 nm elicits fluorescence that peaks at 310 nm for monomeric tyrosine, and at 350-400 nm for tyrosinate or dimeric tyrosine. The fluorescence spectrum of α-synuclein yielded fluorescence peaks at 310 and 400 nm. The peak at 400 nm cannot be explained by the presence of dimeric tyrosine, due to dimerization of α-synuclein, because dimerization of α-synuclein decreases the fluorescence at 400 nm, and tends to eliminate the peak at 400 nm.

[2] = system: BE-M17 neuroblastoma cells; assay: Iron-induced α-synuclein aggregation in BE-M17 cell lines (fractionation, immunoblot); assay type: cell-based, human; settings: for formation of large α-synuclein aggregates migrating in the stacking gel: cells over-expressing A30P or wild type α-synuclein, 48 hrs, 10 mM FeCl2 and/or 5-500 μM dopamine
Method: Immunoblotting: Cells were harvested with SDS lysis solution (2% SDS, 10 mM Tris, pH 7.4, 2 mM β-glycerol phosphate, 1 μM AEBSF). The amount of protein was determined using the BCA assay (Pierce), […] per lane was run on 14% SDS polyacrylamide gels and transferred to nitrocellulose (200 mAmp, 12 hrs). The nitrocellulose was then incubated 1 hr in 5% milk/PBS, washed, incubated overnight in 1° antibody, washed, then incubated 3 hrs in peroxidase coupled 2° antibody and developed with chemiluminescent reagent (NEN).
Cell fractionation: For cell fractionation the cells were harvested in buffer containing 20 mM Tris, pH 7.4, 2 mM EDTA, 0.25 M sucrose, and 20 μg/mL protease inhibitor cocktail (Sigma). The cell lysate was sonicated and centrifuged at 100,000×g at 4° C. for 1 hr.
To test whether A53T and A30P mutations in α-synuclein increase the tendency of α-synuclein to aggregate in neurons, α-synuclein aggregation was determined in human BE-M17 neuroblastoma cells that were stably transfected with wild type, A53T or A30P α-synuclein. Each cell line was treated for 48 hours with freshly prepared FeCl2 (1 or 10 mM), then harvested, homogenized and fractionated into membrane and cytoplasmic components. The membrane (5 μg/lane) and cytoplasmic (20 μg/lane) components were immunoblotted with monoclonal anti-α-synuclein antibody.
To determine the effect of increasing the duration of exposure to iron on aggregation of α-synuclein at lower doses of iron, BE-M17 cells which are over-expressing A53T or wildtype α-synuclein were exposed to FeCl2 for 4 days. Under these conditions, doses as low as 0.3 μM FeCl2 produced detectable aggregation of α-synuclein in cells expressing A53T α-synuclein.
Neurol. 57:793-796 (2000)]. If so, adding free radical generators, such as hydrogen peroxide or dopamine, along with the iron might increase the amount of α-synuclein aggregation. To further determine that oxidation enhanced iron-induced aggregation of α-synuclein, BE-M17 cells over-expressing A30P or wildtype α-synuclein were treated for 48 hrs with 10 mM FeCl2 plus varying concentrations of dopamine (0.5, 50, and 500 μM).

α-synuclein ΔC1-113 = biological target: T2, α-synuclein ΔC1-113 (Homo sapiens, UniProt P37840); assay: Tyrosine fluorescence assay of iron binding to C-terminal deletion construct
T2 construct: made in house
Method: as §1

[3] = system: BE-M17 cells over-expressing α-synuclein; assay: Iron-mediated toxicity in BE-M17 cell lines, MTT assay; assay type: cell-based; settings: for reduction of LD50 by α-synuclein over-expression: 48 hrs
Method: To determine if the conditions that produce α-synuclein aggregation also produce toxicity, the vulnerability of each cell line to iron and/or hydrogen peroxide-mediated toxicity was tested. Each cell line (untransfected, wild type, A53T and A30P a-synuclein) was treated with varying doses of FeCl2, H2O2 or FeCl2+H2O2 and the amount of toxicity was determined by MTT assay. […] Over-expression of A30P or wild type α-synuclein constructs reduced the LD50 values by ˜50%, although the amount of toxicity seen in A30P-expressing cells in response to low levels of iron was generally greater than toxicity seen with wildtype α-synuclein (FIG. 1A). To confirm that over-expression of α-synuclein increased the vulnerability of the neuroblastoma cells to iron, iron-induced toxicity was tested using a LDH assay (FIG. 1B). The LDH assay confirmed that over-expression of the α-synuclein constructs increases iron-induced toxicity (FIG. 1B).

A53T α-synuclein = biological target: T3, A53T α-synuclein (Homo sapiens, UniProt P37840, A53T); assay: Tyrosine fluorescence assay of metal binding to A53T α-synuclein
T3 construct: His-6 (cleaved yes); made in house; host or cells: bacteria (IPTG-induced; Pro-Ex His 6 vector)
Source text: We also examined how the A53T mutation in human α-synuclein affected binding of iron and magnesium. […] Previous studies have shown that A53T mutation changes the conformation of α-synuclein by increasing its helical content (Polymeropoulos et al., Science, 276:2045-7(1997)). These conformational changes might also reduce binding of magnesium to α-synuclein.

[4] = biological target: T4, NAC portion (approx. amino acids 61-87) of α-synuclein (Homo sapiens, UniProt P37840); assay: Phage display selection for binding to NAC portion of α-synuclein; settings: for relative binding properties: NAC portion binders; for binding to the NAC portion of α-synuclein: phage display
T4 construct: The peptides were selected using the α-synuclein 121-131 and 61-87 peptides as the bait
Source text: (§2) Such peptides can be found, for instance, by using phage display to select for those phage expressing a peptide on their surface that binds to α-synuclein, and determining what the peptide is. The inhibitory effect of that peptide, or any peptide for that matter, can also be tested to determine its usefulness as an agent for treating a Lewy body disease or synucleinopathy by using assays such as those disclosed herein or as disclosed in U.S. Pat. No. 6,184,351, which is incorporated herein by reference. Such peptides have been selected for their ability to bind to the C-terminal (approx. amino acids 113-140), and the NAC portion (approx. amino acids 61-87) of α-synuclein, because this region is thought to be involved with the aggregation process. Several peptides that bind to the C-terminal portion are as follows (all peptides are given in […] order): (1) WRQTRKD (SEQ ID NO: 1); (2) HYAKNPI (SEQ ID NO: 2); (3) ATINKSL (SEQ ID NO: 3); (4) RRRGMAI (SEQ ID NO: 4); (5) THRLPSR (SEQ ID NO: 5); and (6) TKHGPRK (SEQ ID NO: 6). Several peptides that bind to the NAC portion are: (1) SLKRLPK (SEQ ID NO: 7); (2) RLRGRNQ (SEQ ID NO: 8); (3) WPFHHHR (SEQ ID NO: 9); (4) HLYHHKT (SEQ ID NO: 10); (5) THIHHPS (SEQ ID NO: 11); and (6) MMMMMRL (SEQ ID NO: 12). […] Most preferred is the peptide SLKRLPK (SEQ ID NO: 7).
(§3) Phage display: Incubating a library of phage that is all identical except for a sequence of 7 amino acids that are presented on the coat and randomly differ from phage to phage. Phage which express a sequence that specifically binds to α-synuclein are then isolated, cloned, and the DNA sequenced to determined the amino acid sequence. The 7 amino acid peptide is then synthesized and tested directly.
(§4) Phage display (phage display kit was from New England Biolabs (Beverly, Mass.)) was used to specifically select for peptides that can inhibit iron binding. […] The peptides were selected using the α-synuclein 121-131 and 61-87 peptides as the bait. One such peptide has the sequence SLKRLPK (SEQ ID NO: 7).

α-synuclein [5] = biological target: T1, α-synuclein; assay: Phage ELISA binding to α-synuclein absorbed to plastic well
Method: Bound phage was detected by adding peroxidase coupled anti-phage antibody, incubating 1 hr, washing 5 times and detecting signal using the peroxidase substrate ABTS. Bound phage produces a dark green signal that is measured as optical density with a spectrophotometer. Using these conditions, the phage containing the SLKRLPK (SEQ ID NO: 7) peptide gave OD's of 0.882, 0.844, and 0.480 at dilutions of 1:10, 1:100, and 1:1000, respectively.

[6] = biological target: T5, C-terminal (approx. amino acids 113-140) of α-synuclein (Homo sapiens, UniProt P37840); assay: Phage display selection for binding to C-terminal portion of α-synuclein; settings: for binding to the C-terminal portion of α-synuclein: phage display
T5 construct: The peptides were selected using the α-synuclein 121-131 and 61-87 peptides as the bait
Source text: as §2, §3, §4

relative binding properties [4]: stronger binding properties | binding to the NAC portion of α-synuclein [4]: bind | OD of bound phage (α-synuclein [5]; phage dilution 1:10): 0.882 | OD of bound phage (α-synuclein [5]; phage dilution 1:100): 0.844 | OD of bound phage (α-synuclein [5]; phage dilution 1:1000): 0.480 | binding of phage to α-synuclein by ELISA (α-synuclein [5]; phage expressing the sequence): particularly strong binding
Compound: SLKRLPK (listed as Homo sapiens)

binding to the C-terminal portion of α-synuclein [6]: bind
Compound: ATINKSL (listed as Homo sapiens)

relative binding properties ([6]; C-terminal portion binder): stronger binding properties | binding to the C-terminal portion of α-synuclein [6]: bind
Compound: THRLPSR (listed as Homo sapiens)

binding to the NAC portion of α-synuclein [4]: bind
Compound: HLYHHKT (listed as Homo sapiens)

binding to the C-terminal portion of α-synuclein [6]: bind
Compound: RRRGMAI (listed as Homo sapiens)

binding to the NAC portion of α-synuclein [4]: bind
Compound: RLRGRNQ (listed as Homo sapiens)

Continued, compound first:

Compound: [Cl][Fe][Cl] [FeCl2]
Hill coefficient of iron binding curve (α-synuclein [1]): 1.0 | IC50 (α-synuclein [1]; excitation 280 nm, sigmoidal fit, read-out: IC50 of quenching of α-synuclein tyrosine fluorescence (iron binding)): 173 µM | α-synuclein aggregate formation ([2]; A53T-expressing cell line, 1 or 10 mM, 48 hours, membrane fraction): induced dose-dependent formation of heterogeneous high molecular weight α-synuclein aggregates | lowest dose producing detectable aggregation of α-synuclein ([2]; cells expressing A53T α-synuclein, 4 days): 0.3 µM | formation of large α-synuclein aggregates migrating in the stacking gel [2]: did not induce any aggregation | α-synuclein aggregate formation ([2]; untransfected, wildtype and A30P cell lines, 48 hr): did not induce α-synuclein aggregates | IC50 (α-synuclein ΔC1-113; construct lacking the last 27 amino acids): 726 µM | reduction in iron binding versus wildtype (α-synuclein ΔC1-113; ΔC1-113 versus wildtype α-synuclein): > 4 fold | increase in vulnerability to induced toxicity in cells over-expressing α-synuclein [3]: ≤ 4 fold | reduction of LD50 by α-synuclein over-expression ([3]; A30P or wild type α-synuclein over-expressing cells versus untransfected): ~50% | reduction of LD50 by α-synuclein over-expression ([3]; A53T α-synuclein over-expressing cells versus untransfected): over 75% | effect of A53T mutation on binding to α-synuclein (A53T α-synuclein): did not change the apparent affinity

Compound: WRQTRKD (listed as Homo sapiens)
binding to the C-terminal portion of α-synuclein [6]: bind

Compound: HYAKNPI (listed as Homo sapiens)
binding to the C-terminal portion of α-synuclein [6]: bind

Compound: NCCc1ccc(O)c(O)c1 [dopamine]
formation of large α-synuclein aggregates migrating in the stacking gel [2]: did not induce formation of large α-synuclein aggregates

Compound: THIHHPS (listed as Homo sapiens)
relative binding properties [4]: stronger binding properties | binding to the NAC portion of α-synuclein [4]: bind

Compound: MMMMMRL (listed as Homo sapiens)
relative binding properties [4]: stronger binding properties | binding to the NAC portion of α-synuclein [4]: bind

Compound: TKHGPRK (listed as Homo sapiens)
binding to the C-terminal portion of α-synuclein [6]: bind

Compound: WPFHHHR (listed as Homo sapiens)
binding to the NAC portion of α-synuclein [4]: bind

— patent US6780971B2, “Compositions for inhibiting the aggregation pathway of α-synuclein” (Panacea Pharmaceuticals, Inc., priority 2000, dated 2004)
